Results on nine molecules are retold here after PMC5663475, “SAV1 promotes Hippo kinase activation through antagonizing the PP2A phosphatase STRIPAK” (eLife, 2017).

Non-standard residues stand in square brackets, D forms with d. Residues, ends and D or L forms follow the SMILES beside them. pT = C[C@@H](OP(=O)(O)O)[C@H](N)C(=O)O

One data set concerns the target human SAV1 WW2 (human) (UniProt Q9H4B6). The data set is described as follows: SEC; recombinant SAV1 WW1 and WW2 on a Superdex 75 gel filtration column. (Size exclusion chromatography separates by hydrodynamic size, large species first.)
For another data set, the target named is T1, MOB1^33-216 (Homo sapiens, UniProt Q9H8S9).
T1 construct: recombinant MOB1^33-216 and pT378-MST2 peptides
T1 sequence (Q9H8S9 33-216): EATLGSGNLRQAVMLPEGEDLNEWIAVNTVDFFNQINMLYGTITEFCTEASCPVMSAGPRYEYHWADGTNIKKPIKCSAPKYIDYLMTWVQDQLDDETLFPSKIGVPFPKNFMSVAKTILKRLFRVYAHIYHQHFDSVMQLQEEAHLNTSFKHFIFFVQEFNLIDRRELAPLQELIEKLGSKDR
The data set is described as follows: ITC, MOB1^33-216 with phospho-MST2 peptides. It is filed as binding. The conditions noted are these: MicroCal iTC200, 20 °C, 20 mM Tris pH 8.0, 50 mM NaCl, 50 µM protein titrated with 500 µM peptide, measured as controls. As for the experimental part: The binding affinities between purified recombinant human SLMAP-FHA (residues 1–140) and the phospho-MST2 peptides were measured using a MicroCal iTC200 calorimeter (GE Healthcare) at 20 °C. The binding affinities between recombinant MOB1^33-216 and pT378-MST2 peptides were measured as controls. Ratio of protein to peptide concentration was 1:10 for each experiment. A 50 µM SLMAP-FHA or MOB1^33-216 sample in the buffer containing 20 mM Tris, pH 8.0, 50 mM NaCl was titrated with 500 µM of phospho-MST2 peptide in the same buffer. All phospho-MST2 peptides were synthesized with the following sequences: pT325-MST2^320-329, ELDSHpTMVKT; pT336-MST2^331-340, VESVGpTMRAT; pT378-MST2^373-382, EEEDGpTMKRN; and pT378-MST2^371-401, DEEEEDGp[…]. Due to low solubility of pT325-MST2^320-329, 5% (v/v) DMSO was added to both protein and peptide buffers. Peptide concentration was measured using the spectrophotometer at wavelength λ = 205 nm. In all cases, thermograms were integrated using NITPIC method ([Keller et al., 2012]), imported to the SEDPHAT software ([Zhao et al., 2015]), and binding-model fits (A + B < ->AB) were made by fixing the protein concentration adjustment coefficients and allowing the software to adjust peptide concentration by a correction coefficient, as it is not 100% accurate due to the nature of the concentration measurements. […]
(In general: Isothermal titration calorimetry measures the heat released or taken up as one component is titrated into another.)

The target of another data set is SLMAP (UniProt Q14BN4). The data set is described as follows: anti-FLAG IP, anti-SLMAP blot. The conditions noted are these: reference: MST2 wild type; sites T325,T336,T378.
Data set [1] deals with the molecule itself. The data set is described as follows: AUC + SEC; sedimentation velocity at 4 °C, 50,000 rpm, 20 mM Tris pH 8.0, 200 mM NaCl, 5 mM MgCl2; gel filtration on Superdex 200; co-expressed and co-purified MST2-FL/SAV1 fragment complexes.
Data set [2] concerns MST2. The data set is described as follows: MST2-SAV1 autophosphorylation (pT180). It is filed as biochemical, human. The conditions noted are these: 2.5 µM MST2-SAV1 complex, dephosphorylated by 0.5 µM PP2A A-C, then 5 µM okadaic acid; 2 mM ATP, anti-pT180 blot; at least two independent experiments. As for the experimental part:
For assaying MST2-SAV1 autophosphorylation, 2.5 µM MST2-SAV1-ΔN198 or MST2-SAV1-ΔN268 was dephosphorylated by 0.5 µM PP2A A-C core complex for 30 min at room temperature. Okadaic acid was then added to a final concentration of 5 µM and the reaction mixture was incubated on ice for another 30 min. The reaction mixture was diluted by a ratio of 1:5 at room temperature with a kinase reaction buffer containing 50 mM Tris (pH 7.5), 150 mM NaCl, 5 mM MgCl2, 2 mM ATP, and 1 mM DTT. At different time intervals, autophosphorylation was terminated by adding 2X SDS loading buffer and boiling for 5 min in 100 °C water bath. All samples were separated by SDS-PAGE and blotted by a specific antibody against pT180 of MST2.

Data set [3] concerns MST2. The data set is described as follows: In vitro MST2 kinase assay using MOB1 as substrate. It is filed as biochemical, human. The conditions noted are these: 0.5 nM MST2, 0.4 µM MOB1, pT35-MOB1 quantitative Western blot; two biological replicates. The method, then:
For in vitro kinase assays, 0.4 μM MST2-FL or MST2-ΔL was incubated in the kinase reaction buffer containing 50 mM Tris (pH 7.5), 150 mM NaCl, 10 mM MgCl2, 1 mM ATP, 1 mM DTT, and 0.1 μCi/μl γ-^32P-ATP with 40 μM myelin basic protein (MBP). At different time intervals, an aliquot of reaction mixture was added with equal volume of 2X SDS sample buffer and followed by boiling for 5 min in 100 °C water bath. All samples were separated by SDS-PAGE and analyzed by autoradiography. For in vitro kinase assays using MOB1 as substrate, 0.5 nM MST2 was incubated with 0.4 µM recombinant purified MOB1 in the kinase reaction buffer. The phosphorylated MOB1 was analyzed by quantitative Western blotting using a specific antibody against pT35 of MOB1 (Cell Signaling). The signals were quantified with the Odyssey LI-COR imaging system. For in vitro kinase assays using GST-MST2 D146N as substrate, the kinase reaction was performed with MST2 KD for 30 min at room temperature.

The target in data set [4] is PP2A A subunit (recombinant) (human) (UniProt P30153).
PP2A A subunit (recombinant) (human), sequence (P30153 whole entry, the tested form may be a part): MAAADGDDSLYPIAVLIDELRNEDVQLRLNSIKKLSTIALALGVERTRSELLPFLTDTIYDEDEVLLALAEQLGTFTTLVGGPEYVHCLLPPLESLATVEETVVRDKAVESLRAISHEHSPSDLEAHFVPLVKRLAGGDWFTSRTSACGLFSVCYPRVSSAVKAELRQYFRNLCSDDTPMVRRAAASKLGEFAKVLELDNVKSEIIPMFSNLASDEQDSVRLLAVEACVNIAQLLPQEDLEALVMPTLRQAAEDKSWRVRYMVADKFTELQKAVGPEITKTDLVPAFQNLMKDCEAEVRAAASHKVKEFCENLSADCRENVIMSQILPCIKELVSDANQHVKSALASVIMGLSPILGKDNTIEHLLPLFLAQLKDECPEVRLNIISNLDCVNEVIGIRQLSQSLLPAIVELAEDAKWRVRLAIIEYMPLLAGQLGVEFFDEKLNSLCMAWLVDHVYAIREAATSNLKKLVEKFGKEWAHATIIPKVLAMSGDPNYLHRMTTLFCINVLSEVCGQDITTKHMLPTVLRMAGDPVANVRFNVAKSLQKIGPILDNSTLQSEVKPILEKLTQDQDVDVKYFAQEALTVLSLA
A further data set relates to PP2A A subunit. The data set is described as follows: Gel filtration co-fractionation of SAV1^1-90 with PP2A A subunit. It is filed as binding. Conditions: Superdex 200 gel filtration; PP2A A : SAV1^1-90 1:6 molar ratio; 20 mM Tris pH 8.0, 50 mM NaCl, 1 mM TCEP. As for the experimental part: The N-terminal fragment of SAV1^1-90 was purified by denaturation method using 8 M urea according to the manufacturer’s instructions (Qiagen). SAV1^1-90 was refolded overnight at 4°C in a buffer containing 50 mM Tris (pH 7.5), 150 mM NaCl, 5 mM MgCl2, and 1 mM DTT. To obtain the PP2A A and SAV1^1-90 complex, PP2A A was mixed with refolded SAV1^1-90 at a 1:6 molar ratio and further purified by a Superdex 200 column equilibrated with a buffer containing 20 mM Tris (pH 8.0), 50 mM NaCl, and 1 mM TCEP. For comparison, PP2A A and SAV1^1-90 alone was run under the same condition, respectively.

In the next data set the test system is PP2A A-C. The data set is described as follows: In vitro PP2A inhibition assay (dephosphorylation of MST2 pT180). It is filed as biochemical. The conditions noted are these: 0.1 µM PP2A A-C, 1 µM MST2 KD, quantitative Western blot. The method, then:
For PP2A A-C phosphatase inhibition assays, 0.1 µM PP2A A-C was mixed with the indicated concentrations of SAV1^1-90 and incubated at room temperature for 15 min. […] After 30 min incubation, 15 µl reaction mixture was quenched by the addition of the same volume of 2X SDS sample buffer and boiled for 5 min. The remaining pT180 of MST2 was analyzed by quantitative Western blot using a specific antibody against pT180 of MST2.

In data set [5] the target is T2, MST2-FL (recombinant full-length MST2) (human, UniProt Q13188 1-491).
T2 construct: MST2, human, full length; also called full-length (FL) MST2; source: E. coli BL21 (DE3)-T1R, purified; alone or co-expressed and co-purified with SAV1 C-terminal fragments
T2 sequence (looked up): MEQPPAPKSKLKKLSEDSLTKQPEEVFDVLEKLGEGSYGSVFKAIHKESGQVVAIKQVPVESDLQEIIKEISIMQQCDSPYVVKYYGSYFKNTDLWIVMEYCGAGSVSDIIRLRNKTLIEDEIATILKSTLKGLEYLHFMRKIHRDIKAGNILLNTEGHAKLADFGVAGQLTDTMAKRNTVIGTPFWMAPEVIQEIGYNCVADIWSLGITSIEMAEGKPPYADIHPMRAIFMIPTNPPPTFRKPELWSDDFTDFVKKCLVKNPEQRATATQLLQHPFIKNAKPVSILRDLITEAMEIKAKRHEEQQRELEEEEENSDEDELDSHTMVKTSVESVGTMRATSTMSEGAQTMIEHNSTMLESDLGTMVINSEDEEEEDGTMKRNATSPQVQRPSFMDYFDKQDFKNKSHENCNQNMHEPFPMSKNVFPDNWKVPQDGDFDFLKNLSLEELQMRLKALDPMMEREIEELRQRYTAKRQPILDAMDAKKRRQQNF
Put plainly: pull-down; GST-SLMAP FHA on glutathione-Sepharose beads as bait, purified MST2 proteins in TBS (50 mM Tris pH 7.5, 150 mM NaCl) with 0.05% Tween, 2 h; Coomassie-stained gel. Conditions: both partners purified.

One may read the stoichiometry N as the number of molecules, sites or subunits per partner or assembly. By Kd is commonly meant the constant that tells how readily two partners part at equilibrium. A lower Kd goes with higher affinity.

As to “human SAV1 WW2 (from UniProt Q9H4B6 1-383) (domain or fragment)”, the stoichiometry N with human SAV1 WW2 (human) amounted to 2. Regarding `CSCC[C@H](NC(=O)[C@@H](NC(=O)CNC(=O)[C@H](CC(=O)O)NC(=O)[C@H](CCC(=O)O)NC(=O)[C@H](CCC(=O)O)NC(=O)[C@@H](N)CCC(=O)O)[C@@H](C)OP(=O)(O)O)C(=O)N[C@@H](CCCCN)C(=O)N[C@@H](CCCNC(=N)N)C(=O)N[C@@H](CC(N)=O)C(=O)O` [pT378-MST2^373-382] (H-EEEDG[pT]MKRN-OH), the affinity at MOB1^33-216, expressed as Kd, was 9.95 µM. The molecule `CSCC[C@H](NC(=O)[C@H](Cc1ccccc1)NC(=O)[C@H](CO)NC(=O)[C@@H]1CCCN1C(=O)[C@H](CCCNC(=N)N)NC(=O)[C@H](CCC(N)=O)NC(=O)[C@@H](NC(=O)[C@H](CCC(N)=O)NC(=O)[C@@H]1CCCN1C(=O)[C@H](CO)NC(=O)[C@@H](NC(=O)[C@H](C)NC(=O)[C@H](CC(N)=O)NC(=O)[C@H](CCCNC(=N)N)NC(=O)[C@H](CCCCN)NC(=O)[C@H](CCSC)NC(=O)[C@@H](NC(=O)CNC(=O)[C@H](CC(=O)O)NC(=O)[C@H](CCC(=O)O)NC(=O)[C@H](CCC(=O)O)NC(=O)[C@H](CCC(=O)O)NC(=O)[C@H](CCC(=O)O)NC(=O)[C@@H](N)CC(=O)O)[C@@H](C)OP(=O)(O)O)[C@@H](C)O)C(C)C)C(=O)N[C@@H](CC(=O)O)C(=O)N[C@@H](Cc1ccc(O)cc1)C(=O)N[C@@H](Cc1ccccc1)C(=O)N[C@@H](CC(=O)O)C(=O)N[C@@H](CCCCN)C(=O)N[C@@H](CCC(N)=O)C(=O)N[C@@H](CC(=O)O)C(=O)O` [pT378-MST2^371-401] (H-DEEEEDG[pT]MKRNATSPQVQRPSFMDYFDKQD-OH) had a Kd at MOB1^33-216 of 0.296 µM.

Regarding MST2 (from UniProt Q13188) MST2 3TA, the “binding against the reference” value with SLMAP is given as “lost”.

B1: SAV1-ΔN198 (domain or fragment, human, UniProt Q9H4B6 199-383, looked up)
chain: LPLPPGWSVDWTMRGRKYYIDHNTNTTHWSHPLEREGLPPGWERVESSEFGTYYVDHTNKKAQYRHPCAPSVPRYDQPPPVTYQPQQTERNQSLLVPANPYHTAEIPDWLQVYARAPVKYDHILKWELFQLADLDTYQGMLKLLFMKELEQIVKMYEAYRQALLTELENRKQRQQWYAQQHGKNF
notes: SAV1, human, N-terminal 198 residues deleted (WW1, WW2 and SARAH domains); also called SAV1 ∆N198; SAV1 fragment containing both WW domains and the SARAH domain; source: E. coli BL21 (DE3)-T1R, co-expressed with MST2, purified (glutathione-Sepharose, TEV, Superdex 200); not shown: GST, N-terminal, cleaved
As to B1, the binding result in [1] is on record as “binds”.

B2: SAV1 ∆N198: SAV1 mutant which contains WW1/2 and SARAH domains (protein)
chain: B1 chain
modifications: left off: GST, N-terminal, cleaved
notes: SAV1 mutant which contains WW1/2 and SARAH domains
With B2, the “MST2 activation (T180 autophosphorylation) in vitro” value with MST2 [2] is on record as “could support MST2 auto-activation”. Moreover, the “stimulation of MST2 kinase activity toward MOB1” value in the data set with MST2 [3] is on record as “did not stimulate the MST2 kinase activity toward MOB1”.

B3: SAV1^1-90 (recombinant) (domain or fragment)
chain: MLSRKKTKNEVSKPAEVQGKYVKKETSPLLRNLMPSFIRHGPTIPRRTDICLPDSSPNAFSTSGDVVSRNQSFLRTPIQRTPHEIMRRES
Regarding B3, the dephosphorylation of MST2 pT180 (1 µM MST2 kinase domain) by 0.1 µM PP2A A-C core in vitro, SAV1 1-90 at the indicated concentrations in data set [4] stood at 100 µM.

B4: SAV1 1–90: N-terminal fragment of SAV1 (residues 1–90), recombinant, refolded (protein)
chain: B3 chain
modifications: left off: FLAG, end not stated, kept
As for B4, in the data set on PP2A A subunit, the “co-fractionation with recombinant PP2A A subunit” value is recorded as “co-fractionated”. Further, the “inhibition of PP2A A-C dephosphorylation of MST2 pT180” value in the data set with PP2A A-C (15 min pre-incubation with SAV1^1-90 at room temperature, 20 mM Tris pH 8.0, 100 mM NaCl, 30 min) is “blocked the dephosphorylation of MST2 pT180 by PP2A A-C”. Moreover, in the data set on PP2A A-C ("Very high and non-physiological concentrations" needed), the “concentration needed for PP2A A-C inhibition” value is listed as 100 µM.

B5: GST-SLMAP FHA (residues 1–140) (domain or fragment, human, UniProt Q14BN4 1-140, looked up)
chain: MPSALAIFTCRPNSHPFQERHVYLDEPIKIGRSVARCRPAQNNATFDCKVLSRNHALVWFDHKTGKFYLQDTKSSNGTFINSQRLSRGSEESPPCEILSGDIIQFGVDVTENTRKVTHGCIVSTIKLFLPDGMEARLRSD
notes: SLMAP, human, FHA domain, residues 1-140; also called GST-SLMAP FHA fusion protein; not shown: GST, N-terminal, kept
Take B5: the binding result in data set [5] is “binds”.
